# Measured values taken from the DeepSol protein solubility set.
# Experiment: soluble on expression in E. coli; label from the status in PepcDB or PDB records
row,Sequence,soluble on expression in E. coli
1,MGCAEEKKTDVRWATFNIRYDNPQDSLNNWQYRKDRVCQFIKDHELDIVGMQEVLHNQFQDLRAGLPEYDGIGVGRDDGKTAGEYAPLFYRKDKYEVLDSNTFWLAENPDSVGMMGWDAVCVRIATWAKFKDKATGKIFMAVNTHFDHVGEEARRQSALLIIRKIKEIVGERPAVVTGDFNVTDASDAYETITTNEFVMKDAYKTAARVTGVDYTFHDFARIPAEDCEKIDFIFVTPQVLVKSCEIPAEVPEALLSDHNPQLADLELEHHHHHH,not soluble
2,MGCEPKRDCGCCQNSICEFLQSLEPYTKVESIIIAGNEIAVSYFLSFNKKTGIVSFVQEDNEVIFVDCSKIDAIRIGKVCSCKTKVKYIEEDFSLLGNVCPHCLTEGSTIFFDFNNPELNVSFQATTINPPRCTEFTDDLGNVVKQITIVGEAKVSRDFVQVPELVGFRLLLSHLAGDPLNYGLLFINFPDTIFIFILASSGYLSISNCLKIEGGTGDAEIEEMKKMIEDDVNTYKSVVKLTKVYKNGETESFIYKNEL,not soluble
3,MGCGQLDRVDSILVGMSYYNFPSPQGIGNVLVGKAKQTVRIRIPSTNLRKEVVRVGGLLSVSVMAVALSSCSAHPESSLSKSNQLGYAVNDRLVTTNAGSTEGASTNAQLLAGRLYPAPYVSGPKGQLIPNLSMASAQVLPGINQKIVYTISPDAVYSDGEAVTCDDYLLAFTAGTYDYVFDSYMPLMKQIDKVECKPRDREVTVTLKENFGPRWRQLFPAGVILPAHAIARKMGVTLEDLNTVLQSRDVDALQPIAEVWNRGFSLDQFDPDLQVSSGPYKVDRVGDRGEVYLTRNPHYGGQPAEIESVVVWPKGANLKELKDTGSLEIAEVTSSKEIDWLDRNDSTNSFDVQAQSGVLTEELLLANAGVFATRENRQAFASCIDQSSIASESSELSGVEVAPVTARTIRANDPMAGHVKDLTEAHLHSDVEQARRLAGQTIAIGYEGPDARMEAIVANIRRSCEPAGIIVVDAHQEGSGIRDLSRSFTTDHGYQFDKIGTIDVVLKALDPATEFESVATTSNNIAATRQAELSTWDVVPSIPLASQPRVFVVDRRVSNVVLNTDLAGIGWNMDRWFFSKNSK,not soluble
4,MGCSSQTHSSQKETTIPVTLHVEDAKGLPVEGVQVTIVKAPSSDEEPSTEIGEILGKTDKNGDIKWDTGRKGDYSVALTKGETSVTHHISLTEDKKDHAIPLVFKELEHHHHHH,soluble
5,MGDILAHESELLGLVKEYLDFAEFEDTLKTFSKECKIKGKPLCKTVGGSFRDSKSLTIQKDLVAAFDNGDQKVFFDLWEEHISSSIRDGDSFAQKLEFYLHIHFAIYFLKYSVGRPDKEELDEKISYFKTYLETKGAALSQTTEFLPFYALPFVPNPMVHPSFKELFQDSWTPELKLKLEKFLALISKASNTPKLLTIYKENGQSNKEILQQLHQQLVEAERRSVTYLKRYNKIQADYHNLIGVTAELVDSLEATVSGKMITPEYLQSVCVRLFSNQMRQSLAHSVDFTRPGTASTMLRASLAPVKLKDVPLLPSLDYEKLKKDLILGSDRLKAFLLQALRWRLTTSHPGEQRETVLQAYISNDLLDCYSHNQRSVLQLLHSTSDVVRQYMARLINAFASLAEGRLYLAQNTKVLQMLEGRLKEEDKDIITRENVLGALQKFSLRRPLQTAMIQDGLIFWLVDVLKDPDCLSDYTLEYSVALLMNLCLRSTGKNMCAKVAGLVLKVLSDLLGHENHEIQPYVNGALYSILSVPSIREEARAMGMEDILRCFIKEGNAEMIRQIEFIIKQLNSEELPDGVLESDDDEDEDDEEDHDIMEADLDKDELIQPQLGELSGEKLLTTEYLGIMTNTGKTRRKGLANVQWSGDEPLQRPVTPGGHRNGYPV,not soluble
6,MGDTFIRHIALLGFEKRFVPSQHYVYMFLVKWQDLSEKVVYRRFTEIYEFHKTLKEMFPIEAGAINPENRIIPHLPAPKWFDGQRAAENRQGTLTEYCSTLMSLPTKISRCPHLLDFFKVRPDDLKLPTDNQTKKPETYLM,soluble
7,MGEHICFRRNERLATVNPYWRGNPMVRGRFFNRQHRFRPGMGSVLKWRLSPNPQRKEKKTVKWDPKVCYLRSLDAVVGDSLIWLGHNSFFLQLAGKRIMFDPVFGNIPFVKRQSEFPANPDIFTEIDYLLISHDHFDHLDKQSITRLLNNNPQMKLFCGLGTGELIKSWFPEMRVIEAGWYQQLEDEGLKITFLPAQHWSKRSVRDGGQRLWGAFMLQGNGVSLYYSGDTGYSTHFREIPDLFGAPDYALLGIGAYKPRWFMRPNHISPYESLTASEEMHAGITIPMHYGTFDLSDEPLHDPPKVFAAEAKKRKIRVEIPYLGEIVKLSKRK,not soluble
8,MGEHKQNLSLQDMTHSDTGQIAYLKKVCTDDLAKNFPDLPPMTPGITVWALFGETGYPIILSDERSIALAGANEHELQIVTLH,not soluble
9,MGEIQVVAFRLGDEEFCLEISKVREIKEMMPITRVPNAPDFVEGVINLRGQITTVINLKKLLGYYDDGDLSNKKIIIAEVNGEIVGVIVDSVSDVITLTEDQIEQPPKTLASRVDMKAIKGIAKINNGERLLIMLDLDKLIGESF,soluble
10,MGFFSGQFSNVVEWEEFREDMIFWKWHNREIKRGSKLIIRPGQDAIFLFNGRIEGIFKDEGDYDIESQIIPFLSTLQGFKFGFNSGMRAEVLFVNTKEFTAKWGTKSAINIPTPQLPGGIPIRANGTFTFKVNDYVKLIDRIAGVKDSFLVEDVRLRIMALLDQLMMKWIVQEGRDMFNLQSNSFAIADGLKTDLDMQIYDMGITVSQLTIMSFTYPEEIQQMIAKAASHTMIGDMGRYQQVSVLDGIAGGKLEHHHHHH,not soluble
11,MGFIMLLRSRFLKVIHVRKQLSACSRFAIQTQTRCKSTDASEDEVKHFQELAPTWWDTDGSQRILHKMNLTRLDFVQRTVRNQVKIQNPEIFVPGFNYKEFLPEYVCDNIQREMQESIETNLDKRPEVSVLDVGCGGGILSESLARLKWVKNVQGIDLTRDCIMVAKEHAKKDPMLEGKINYECKALEDVTGQFDIITCMEMLEHVDMPSEILRHCWSRLNPEKGILFLSTINRDLISWFTTIFMGENVLKIVPKGTHHLSKYINSKEILAWFNDNYSGQFRLLDLKGTMYLPYQGWVEHDCSDVGNYFMAIQRLN,not soluble
12,MGFLEDKKRTLMNLELAIREGLVDEEIIPILNKINEIDNYYTTSSCIGRVGIMEIPKDKNPKLYSRWLGKWHHYASYDELFNALKNKKEGYIVFVMNSPILHIACKDIESAKKMLELAIHSGLKASSIKSISDKRVIVEILTTYKVDTPIGEDGEIFVDNNYLKFLLDYSNSKLKRAREILMRWANRLDELKK,soluble
13,MGGIFSKKEKSPKSAPVSDQDNAILALKTQRDKMKQMIKRKENCLEKERQLAKQLIKDGRKDRALLLLKKKRYQEKIIDQTLNHLSKIEQMVNDLEFAEVQQRVTDGLRQGNEALKKMNQLFDIDEIDRIMEETKEAAEYQEEISNMLSGQLSNTDVSDVEKELEDLLAAEWGTVQLPEAPSHELPEAERERQKEKEKPRREKIALEA,not soluble
14,MGGKKFQAMPQLPSTVLDRVFEQARQQPEAIALRRCDGTSALRYRELVAEVGGLAADLRAQSVSRGSRVLVISDNGPETYLSVLACAKLGAIAVMADGNLPIAAIERFCQITDPAAALVAPGSKMASSAVPEALHSIPVIAVDIAAVTRESEHSLDAASLAGNADQGSEDPLAMIFTSGTTGEPKAVLLANRTFFAVPDILQKEGLNWVTWVVGETTYSPLPATHIGGLWWILTCLMHGGLCVTGGENTTSLLEILTTNAVATTCLVPTLLSKLVSELKSANATVPSLRLVGYGGSRAIAADVRFIEATGVRTAQVYGLSETGCTALCLPTDDGSIVKIEAGAVGRPYPGVDVYLAATDGIGPTAPGAGPSASFGTLWIKSPANMLGYWNNPERTAEVLIDGWVNTGDLLERREDGFFYIKGRSSEMIICGGVNIAPDEVDRIAEGVSGVREAACYEIPDEEFGALVGLAVVASAELDESAARALKHTIAARFRRESEPMARPSTIVIVTDIPRTQSGKVMRASLAAAATADKARVVVRG,soluble
15,MGGSHHHHHHGMASALANEEDDPVVQEIDVYLAKSLAEKLYLFQYPVRPASMTYDDIPHLSAKIKPKQQKVELEMAIDTLNPNYCRSKGEQIALNVDGACADETSTYSSKLMDKQTFCSSQTTSNTSRYAAALYRQGELHLTPLHGILQLRPSFSYLDKADAKHREREAANEAGDSSQDEAEDDVKQITVRFSRPESEQARQRRVQSYEFLQKKHAEEPWVHLHYYGLRDSRSEHERQYLLCPGSSGVENTELVKSPSEYLMMLMPPSQEEEKDKPVAPSNVLSMAQLRTLPLADQIKILMKNVKVMPFANLMSLLGPSIDSVAVLRGIQKVAMLVQGNWVVKSDILYPKDSSSPHSGVPAEVLCRGRDFVMWKFTQSRWVVRKEVATVTKLCAEDVKDFLEHMAVVRINKGWEFILPYDGEFIKKHPDVVQRQHMLWTGIQAKLEKVYNLVKETMPKKPDAQSGPAGLVCGDQRIQVAKTKAQQNHALLERELQRRKEQLRVPAVPPGVRIKEEPVSEEGEEDEEQEAEEEPMDTSPSGLHSKLANGLPLGRAAGTDSFNGHPPQGCASTPVARELKAFVEATFQRQFVLTLSELKRLFNLHLASLPPGHTLFSGISDRMLQDTVLAAGCKQILVPFPPQTAASPDEQKVFALWESGDMSDQDCCVSYGGMWYLKGTVQS,not soluble
16,MGGSHHHHHHGMASALAQVAMSTLPVEDEESSESRMVVTFLMSALESMCKELAKSKAEVACIAVYETDVFVVGTERGRAFVNTRKDFQKDFVKYCVEEEEKAAEMHKMKSTTQANRMSVDAVEIETLRKTVEDYFCFCYGKALGKSTVVPVPYEKMLRDQSAVVVQGLPEGVAFKHPENYDLATLKWILENKAGISFIIKRPFLEPKKHVGGRVMVTDADRSILSPGGSCGPIKVKTEPTEDSGISLEMAAVTVKEESEDPDYYQYNIQGSHHSSEGNEGTEMEVPAEG,not soluble
17,MGGSHHHHHHGMASLAPGSSRVELFKRQSSKVPFEKDGKVTERVVHSFRLPALVNVDGVMVAIADARYETSFANSLIDTVAKYSVDDGETWETQIAIKNSRASSVSRVVDPTVIVKGNKLYVLVGSYNSSRSYWTSHGDARDWDILLAVGEVTKSTAGGKITASIKWGSPVSLKEFFPAEMEGMHTNQFLGGAGVAIVASNGNLVYPVQVTNKKKQVFSKIFYSEDEGKTWKFGKGRSAFGCSEPVALEWEGKLIINTRVDYRRRLVYESSDMGNTWLEAVGTLSRVWGPSPKSNQPGSQSSFTAVTIEGMRVMLFTHPLNFKGRWLRDRLNLWLTDNQRIYNVGQVSIGDENSAYSSVLYKDDKLYCLHEINSNEVYSLVFARLVGELRIIKSVLQSWKNWDSHLSSICTPADPAASSSERGCGPAVTTVGLVGFLSHSATKTEWEDAYRCVNASTANAERVPNGLKFAGVGGGALWPVSQQGQNQRYHFANHAFTLVASVTIHEVPKGASPLLGASLDSSGGKKLLGLSYDKRHQWQPIYGSTPVTPTGSWEMGKRYHVVLTMANKIGSVYIDGEPLEGSGQTVVPDERTPDISHFYVGGYKRSGMPTDSRVTVNNVLLYNRQLNAEEIRTLFLSQDLIGTEAHMD,soluble
18,MGHHHHHHGGHMSLGALILSDRDIRALLAIGDLVVEPLSGDTVRENGLDLRLGRGFCRFKRSDRVLDPRAPGSPGEFYECGEGDEIIVGPGEHMLLHTQEYIRLPGYVAGLVNLRSTWARTGIYIPATVVDAGFEGQLTIEVVGSGFPVKLYPGDRFLHLVLVKLQSPAMNPYRGRYQGQRGVRLPKLFAKNTGEGGS,soluble
19,MGHHHHHHHHHHSSGHIEGRHMANPLAGKPFYVDPASAAMVAARNANPPNAELTSVANTPQSYWLDQAFPPATVGGTVARYTGAAQAAGAMPVLTLYGIPHRDCGSYASGGFATGTDYRGWIDAVASGLGSSPATIIVEPDALAMADCLSPDQRQERFDLVRYAVDTLTRDPAAAVYVDAGHSRWLSAEAMAARLNDVGVGRARGFSLNVSNFYTTDEEIGYGEAISGLTNGSHYVIDTSRNGAGPAPDAPLNWCNPSGRALGAPPTTATAGAHADAYLWIKRPGESDGTCGRGEPQAGRFVSQYAIDLAHNAGQ,soluble
